Bioactivity reduction (Cytotoxicity, A375 cells), ratio of LC50 to MA-wt, Bioactivity reduction (IL6 release, HeLa cells), ratio of EC50 to MA-wt and IC50 data for seven substances are collected here from patent US20130115189A1.

In one assay the target is IL-1 receptor. The experiment in a line: cell-based or functional assay.
Regarding “MDI-D145K-His6 (from UniProt P01584 118-269) (ligand)”, the Bioactivity reduction (Cytotoxicity, A375 cells), ratio of LC50 to MA-wt amounted to 600000 fold and the Bioactivity reduction (IL6 release, HeLa cells), ratio of EC50 to MA-wt came to 60000 fold.
For the substance “MDI-wt-His6 (from UniProt P01584 118-269) (ligand)”, the Bioactivity reduction (Cytotoxicity, A375 cells), ratio of LC50 to MA-wt stood at 700 fold and the Bioactivity reduction (IL6 release, HeLa cells), ratio of EC50 to MA-wt was 43 fold.
On the same counts, the results for “MDI-D145K-CG (from UniProt P01584 118-269) (ligand)” are 600000 fold and 60000 fold.

The target of another assay is IL-1 receptor. Briefly: homogeneous time-resolved fluorescence (HTRF) receptor binding assay.
“MDI-D145K-His6 (from UniProt P01584 118-269) (ligand)”: the concentration for half-maximal inhibition (IC50) was 4810 nM.
Still for that read-out and setting: the same measure for “MA-wt (interleukin-1β wild type sequence containing an N-terminal methionine) (from UniProt P01584 117-269) (ligand)”: 20 nM; for “MA-D145K-His6 (from UniProt P01584 117-269) (ligand)”: 28 nM.
On the same count and under the same terms, under “MA-wt-His6 (from UniProt P01584 117-269) (ligand)” stands 23 nM.
Same read-out and setting: under “MDI-wt-His6 (from UniProt P01584 118-269) (ligand)” stands 1340 nM; under “MDI-D145K-CG (from UniProt P01584 118-269) (ligand)”, 6770 nM; under “MA-wt-CG (from UniProt P01584 117-269) (ligand)”, 31 nM.
